According to patent US20230257473A1 (TENEOBIO, published 2023):

T1: human BCMA protein (human, UniProt Q02223 1-54, limits assumed)
T1 sequence (looked up): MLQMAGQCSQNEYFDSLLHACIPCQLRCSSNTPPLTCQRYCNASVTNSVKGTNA


How the values were obtained:
[1] = biological target: recombinant BCMA (R&D Systems, catalog no. 193-BC) (human) (UniProt Q02223); assay: competitive ELISA, plate-bound BCMA; Ab 0.002 ng/mL; competitor APRIL 15.63 ng/mL
[2] = biological target: BCMA on BCMA-expressing cells (H929 / NCI-H929, MM1.S, U266, Daudi) (human) (UniProt Q02223); assay: flow cytometry on H929 cells; antibody 12.500 ng/ml
[3] = biological target: recombinant BCMA (R&D Systems, catalog no. 193-BC) (human) (UniProt Q02223); assay: competitive ELISA, plate-bound BCMA; Ab 0.002 ng/mL; competitor APRIL 62.50 ng/mL
[4] = biological target: BCMA on BCMA-expressing cells (H929 / NCI-H929, MM1.S, U266, Daudi) (human) (UniProt Q02223); assay: flow cytometry on H929 cells; antibody 0.098 ng/ml
[5] = biological target: recombinant BCMA (R&D Systems, catalog no. 193-BC) (human) (UniProt Q02223); assay: competitive ELISA, plate-bound BCMA; Ab 20.000 ng/mL; competitor APRIL 250.00 ng/mL
[6] = biological target: recombinant BCMA (R&D Systems, catalog no. 193-BC) (human) (UniProt Q02223); assay: competitive ELISA, plate-bound BCMA; Ab 0.020 ng/mL; competitor APRIL 500.00 ng/mL
[7] = biological target: recombinant BCMA (R&D Systems, catalog no. 193-BC) (human) (UniProt Q02223); assay: competitive ELISA, plate-bound BCMA; Ab 200.000 ng/mL; competitor APRIL 62.50 ng/mL
[8] = biological target: BCMA on BCMA-expressing cells (H929 / NCI-H929, MM1.S, U266, Daudi) (human) (UniProt Q02223); assay: flow cytometry on MM1.S cells; antibody 12.500 ng/ml
[9] = biological target: recombinant BCMA (R&D Systems, catalog no. 193-BC) (human) (UniProt Q02223); assay: competitive ELISA, plate-bound BCMA; Ab 0.002 ng/mL; competitor APRIL 125.00 ng/mL
[10] = biological target: recombinant BCMA (R&D Systems, catalog no. 193-BC) (human) (UniProt Q02223); assay: competitive ELISA, plate-bound BCMA; Ab 0.200 ng/mL; competitor APRIL 500.00 ng/mL
[11] = biological target: recombinant BCMA (R&D Systems, catalog no. 193-BC) (human) (UniProt Q02223); assay: competitive ELISA, plate-bound BCMA; Ab 0.020 ng/mL; competitor APRIL 250.00 ng/mL
[12] = biological target: recombinant BCMA (R&D Systems, catalog no. 193-BC) (human) (UniProt Q02223); assay: competitive ELISA, plate-bound BCMA; Ab 0.002 ng/mL; competitor APRIL 500.00 ng/mL
[13] = biological target: recombinant BCMA (R&D Systems, catalog no. 193-BC) (human) (UniProt Q02223); assay: competitive ELISA, plate-bound BCMA; Ab 2.000 ng/mL; competitor APRIL 31.25 ng/mL
[14] = biological target: recombinant BCMA (R&D Systems, catalog no. 193-BC) (human) (UniProt Q02223); assay: competitive ELISA, plate-bound BCMA; Ab 2.000 ng/mL; competitor APRIL 7.81 ng/mL
[15] = biological target: recombinant BCMA (R&D Systems, catalog no. 193-BC) (human) (UniProt Q02223); assay: competitive ELISA, plate-bound BCMA; Ab 0.200 ng/mL; competitor APRIL 250.00 ng/mL
[16] = biological target: BCMA on BCMA-expressing cells (H929 / NCI-H929, MM1.S, U266, Daudi) (human) (UniProt Q02223); assay: flow cytometry on H929 cells; antibody 50.000 ng/ml
[17] = biological target: recombinant BCMA (R&D Systems, catalog no. 193-BC) (human) (UniProt Q02223); assay: competitive ELISA, plate-bound BCMA; Ab 0.200 ng/mL; competitor APRIL 125.00 ng/mL
[18] = biological target: recombinant BCMA (R&D Systems, catalog no. 193-BC) (human) (UniProt Q02223); assay: competitive ELISA, plate-bound BCMA; Ab 20.000 ng/mL; competitor APRIL 7.81 ng/mL
[19] = biological target: recombinant BCMA (R&D Systems, catalog no. 193-BC) (human) (UniProt Q02223); assay: competitive ELISA, plate-bound BCMA; Ab 0.200 ng/mL; competitor APRIL 0.00 ng/mL
[20] = biological target: recombinant BCMA (R&D Systems, catalog no. 193-BC) (human) (UniProt Q02223); assay: competitive ELISA, plate-bound BCMA; Ab 0.020 ng/mL; competitor APRIL 15.63 ng/mL
[21] = biological target: recombinant BCMA (R&D Systems, catalog no. 193-BC) (human) (UniProt Q02223); assay: competitive ELISA, plate-bound BCMA; Ab 200.000 ng/mL; competitor APRIL 125.00 ng/mL
[22] = biological target: BCMA on BCMA-expressing cells (H929 / NCI-H929, MM1.S, U266, Daudi) (human) (UniProt Q02223); assay: flow cytometry on MM1.S cells; antibody 200.000 ng/ml
human BCMA protein = biological target: T1, human BCMA protein; assay: ELISA protein and cell-binding assays

Chain of BCMA on BCMA-expressing cells (H929 / NCI-H929, MM1.S, U266, Daudi) (human) (Q02223 whole entry): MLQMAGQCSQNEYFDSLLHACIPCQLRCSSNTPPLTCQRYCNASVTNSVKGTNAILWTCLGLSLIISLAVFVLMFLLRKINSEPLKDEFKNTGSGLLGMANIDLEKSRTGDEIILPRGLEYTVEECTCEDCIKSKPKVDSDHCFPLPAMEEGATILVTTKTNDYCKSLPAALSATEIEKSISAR

| A450-A570 [1] | A450-A570 [3] | MFI [4] | A450-A570 [5] | A450-A570 [6] | A450-A570 [7] | A450-A570 [9] | A450-A570 [10] | A450-A570 [11] | A450-A570 [12] | A450-A570 [13] | A450-A570 [14] | A450-A570 [15] | A450-A570 [17] | A450-A570 [18] | A450-A570 [19] | A450-A570 [20] | A450-A570 [21] | MFI [22] | Binder | other results |
| --- | --- | --- | --- | --- | --- | --- | --- | --- | --- | --- | --- | --- | --- | --- | --- | --- | --- | --- | --- | --- |
| 0.062 | 0.0569 | 5070 | 0.413 | 0.0631 | 2.44 | 0.0607 | 0.0603 | 0.0618 | 0.0617 | 0.121 | 0.108 | 0.0614 | 0.0651 | 0.789 | 0.0676 | 0.0584 | 2.3 | 7340 | AntiX**BCMA_F7E_F7E (bispecific antibody, part only; not given: other chains of three-chain format, not shown: another chain or arm of the molecule) tandem VH: QVQLVESGGGLVQPGGSLRLSCVASGFTFSSNAMSWVRQAPGKGLEWVSAISGSGDYTHYSDSVKGRFTISRDNSKNTLYLQMNSLRAEDTAVYYCAKEVPGGPLVDFDSRGQGTLVTVSSGGGGSGGGGSQVQLVESGGGLVQPGGSLRLSCVASGFTFSSNAMSWVRQAPGKGLEWVSAISGSGDYTHYSDSVKGRFTISRDNSKNTLYLQMNSLRAEDTAVYYCAKEVPGGPLVDFDSRGQGTLVTVSS | MFI [2]: 5680; MFI [8]: 2180; MFI [16]: 10900 |
| 0.0607 | 0.067 | 5060 | 0.148 | 0.0835 | 2.07 | 0.066 | 0.0745 | 0.0617 | 0.0836 | 0.0875 | 0.0895 | 0.0615 | 0.0643 | 0.495 | 0.0708 | 0.0614 | 1.37 | 3180 | anti-BCMA heavy chain-only antibody (UniAb) with the VH of SEQ ID NO: 12 (antibody, V domains shown, Heavy chain-only antibody from UniRat; also called Clone ID No: 316302) VH: QVQLVESGGGLVQPGGSLRLSCVASGFTFSSNAMSWVRQAPGKGLEWVSAISGSGDYTHYSDSVKGRFTISRDNSKNTLYLQMNSLRAEDTAVYYCAKEVPGGPLVDFDSRGQGTLVTVSS | binding result (human BCMA protein): binds |
